Legend:
[1] = biological target: T1, E1_S1 (design 1W4K_08), epitope scaffold presenting the HCV E1 epitope (residues 314-324) (designed scaffold from Pyrobaculum …)
T1 chain: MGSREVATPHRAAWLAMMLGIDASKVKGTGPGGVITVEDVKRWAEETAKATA

[2] = biological target: T2, E2_S2_1 (design 2K6Z_01), epitope scaffold presenting HCV E2 epitope I; conditions: both partners purified
T2 chain: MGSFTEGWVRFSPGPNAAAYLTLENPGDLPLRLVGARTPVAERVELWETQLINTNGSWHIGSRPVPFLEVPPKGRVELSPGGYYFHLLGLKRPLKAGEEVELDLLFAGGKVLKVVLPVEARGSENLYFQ

[3] = biological target: E2_S3_3 (design 4CIL_03), epitope scaffold presenting HCV E2 epitope I; conditions: both partners purified
[4] = biological target: T1, E1_S1 (design 1W4K_08), epitope …; assay: grating-coupled interferometry (GCI, Creoptix WAVE); conditions: both partners purified

B1: N15 (antibody, V domains shown)
VH: QVQLVESGGGVVQPGRSLRLSCAASGFTFSSYVMHWVRQAPGKGLEWVAVISYDGSNKYYADSVKGRFTISRDNSKNTLYLQMNSLRAEDTAVYYCARAPLYDILSDYWGQGTLVTVSS
VL: QLVLTQSPSASASLGASVKLTCTLSSGHSSYAIAWHQQQPEKGPRYLMKLNSDGSHSKGDGIPDRFSGSSSGAERYLTISSLQSEDEADYYCQTWGTGIVVFGGGTKLTVL
B1: binds [1].

B2: Fab fragment of neutralizing antibody HCV1 (Fab, V domains shown)
VH: EVQLLESGGGVVQPGRSLRLSCTASGFTFNNYGMHWVRQTPGKGLEWLAVIWFDENNKYYADSVRGRFTISRDNSKNTLFLQMNSLKTEDTAMYYCARDISLVRDAFIYFDFWGLGTLVTVSS
VL: ELTLTQSPATLSLSPGERATLSCRASQSVSSYLAWYQQKPGQAPRLLIYDASNRATGIPARFSGSGSGTDFTLTISSLEPEDFAVYYCQQRSNWITFGQGTRLEIK
notes: also called Fab HCV1; F(ab) HCV1
B2 showed a Kd [2] of 23 nM, a koff [2] of 0.00121 s⁻¹ and a kon [2] of 52700 M⁻¹ s⁻¹. It also gave a Kd [3] of 2.8 nM, a koff [3] of 0.000369 s⁻¹ and a kon [3] of 133000 M⁻¹ s⁻¹.

B3: Fab fragment of neutralizing antibody IGH526 (Fab, V domains shown)
VH: VQLLEQSGAEVKRPGASVKVSCKASGYTFTSYAIHWVRQAPGQRLEWMGWINPGNGNAKYSQRFQGRVIISRDTSATTSYMELSSLTSEDTAVYSCARDRGFDLLTGHYLGLDPWGQGTLVTVSS
VL: ELTLTQPASASATPGQRVTISCSGSSSNIGGNTVNWYQHLPGAAPKLLIHNNDLRPSGVPDRFSGSKSGTSASLAVSGLQSEDEADYFCAAWDDGLNGWVFGGGTKLTVL
Work on B3 yielded a Kd [4] of 1.4 nM, a koff [4] of 0.00181 s⁻¹ and a kon [4] of 1.32e+06 M⁻¹ s⁻¹.

Reference: article PMC11623273, “Epitope-focused immunogens targeting the hepatitis C virus glycoproteins induce broadly neutralizing antibodies” (Science Advances, 2024)
